How the values were obtained:
[1] = system: PD-L1 on melanoma B16 cells; assay: PD-L1 expression level by flow cytometry; format: cell-based, murine; conditions: 5 μM harmine or 50 μg/ml interferon, 24 hours
Protocol: Melanoma B16 cells were treated by 5 μM harmine or 50 μg/ml interferon for 24 hours. PD-L1 level was assessed by flow cytometry using the FMI mode.
This can be considered as a favourable property because PD-L1 overexpression in tumour cells is constantly associated with poorer overall survival in cancer patients.

L929 cells = conditions: cited from earlier work

B1: interferon gamma: interferon gamma, known to increase the MHC I density at the cell membrane; positive control (protein, UniProt P01580 23-155, looked up)
Interferon gamma: HGTVIESLESLNNYFNSSGIDVEEKSLFLDIWRNWQKDGDMKILQSQIISFYLRLFEVLKDNQAISNNISVIESHLITTFFSNSKAKKDAFMSIAKFEVNNPQVQRQAFNELIRVVHQLLPESSLRKRKRSRC
**Q.** With B1 as the molecule, how does the “PD-L1 expression at the membrane” value [1] read?
**A.** huge effect

**Q.** What about the “fluorescent intensity (MHC class I and actin staining)” value (L929 cells; IFN-γ pre-treated cells compared to cells only) of the same molecule?
**A.** more fluorescent intensity

**Q.** And the actin density (L929 cells)?
**A.** significant increase of actin density

From patent US20220142994A1, “Beta-Carboline Compounds And Use Thereof For The Non-Cytotoxic And Immunological Treatment Of Cancer” (AC BIOSCIENCE SA, priority 2019, published 2022)
